Test results from patent publication US20240261333A1, “NOVEL TARGETS FOR ENHANCING ANTI-TUMOR IMMUNITY” (THE BROAD INSTITUTE, INC., priority 2021, published 2024).

How the values were obtained:
[1] = biological target: RPL35A (UniProt P18077); assay: co-IP with mouse IgG control, mass spectrometry; lysate of N-FLAG B3GNT2 cells
[2] = biological target: YBX3 (UniProt P16989); assay: as above
[3] = biological target: CTSD (UniProt P07339); assay: as above
[4] = biological target: LYZ (UniProt P61626); assay: as above
[5] = biological target: FABP5 (UniProt Q01469); assay: as above
[6] = biological target: YWHAZ (UniProt P63104); assay: as above
[7] = biological target: S100A9 (UniProt P06702); assay: as above
[8] = biological target: RPS17 (UniProt P08708); assay: as above
[9] = biological target: RPL31 (UniProt P62899); assay: as above
[10] = biological target: RUVBL2 (human) (UniProt Q9Y230); assay: co-IP with IgG control, lysate of N-FLAG B3GNT2 cells, mass spectrometry
[11] = biological target: MMP14 (human) (UniProt P50281); assay: as above
[12] = biological target: COPA (human) (UniProt P53621); assay: as above
[13] = biological target: PLOD1 (human) (UniProt Q02809); assay: as above
[14] = biological target: P4HA2 (human) (UniProt O15460); assay: as above
[15] = biological target: RBM14 (human) (UniProt Q96PK6); assay: as above
[16] = biological target: P0AA25.2 [thioredoxin: P0AA25]; assay: as above
[17] = biological target: MMS19 (human) (UniProt Q96T76); assay: as above
[18] = biological target: TPM2 (human) (UniProt P07951); assay: as above
[19] = biological target: CPT1A (human) (UniProt P50416); assay: as above
[20] = biological target: SBSN (human) (UniProt Q6UWP8); assay: as above
[21] = biological target: RPS24 (human) (UniProt P62847); assay: as above
[22] = biological target: SPARC (human) (UniProt P09486); assay: as above
[23] = biological target: PURA (human) (UniProt Q00577); assay: as above
[24] = biological target: DDX3X (human) (UniProt O00571); assay: as above
[25] = biological target: TTC13 (human) (UniProt Q8NBP0); assay: as above
[26] = biological target: PUF60 (human) (UniProt Q9UHX1); assay: as above
[27] = biological target: SRSF6 (human) (UniProt Q13247); assay: as above
[28] = biological target: NAP1L1 (human) (UniProt P55209); assay: as above
[29] = biological target: HNRNPH1 (human) (UniProt P31943); assay: as above
[30] = biological target: PRRC2C (human) (UniProt Q9Y520); assay: as above
[31] = biological target: PSMB5 (human) (UniProt P28074); assay: as above
[32] = biological target: CPSF7 (human) (UniProt Q8N684); assay: as above
[33] = biological target: XPOT (human) (UniProt O43592); assay: as above
[34] = biological target: HBB (human) (UniProt P68871); assay: as above
[35] = biological target: LAMC1 (human) (UniProt P11047); assay: as above
[36] = biological target: ARPC1B (human) (UniProt O15143); assay: as above
[37] = biological target: RPL17 (human) (UniProt P18621); assay: as above
[38] = biological target: TGM1 (human) (UniProt P22735); assay: as above

Substance: IgG control (Millipore Sigma 12-371) (antibody)
- co-IP mass spectrometry count [1]: 0
- co-IP mass spectrometry count [2]: 0
- co-IP mass spectrometry count [3]: 3
- co-IP mass spectrometry count [4]: 4
- co-IP mass spectrometry count [5]: 2
- co-IP mass spectrometry count [6]: 0
- co-IP mass spectrometry count [7]: 0
- co-IP mass spectrometry count [8]: 3
- co-IP mass spectrometry count [9]: 0
- co-IP/MS count, N-term IgG [10]: 0
- co-IP/MS count, N-term IgG [11]: 0
- co-IP/MS count, N-term IgG [12]: 0
- co-IP/MS count, N-term IgG [13]: 0
- co-IP/MS count, N-term IgG [14]: 0
- co-IP/MS count, N-term IgG [15]: 4
- co-IP/MS count, N-term IgG [16]: 3
- co-IP/MS count, N-term IgG [17]: 0
- co-IP/MS count, N-term IgG [18]: 0
- co-IP/MS count, N-term IgG [19]: 0
- co-IP/MS count, N-term IgG [20]: 25
- co-IP/MS count, N-term IgG [21]: 4
- co-IP/MS count, N-term IgG [22]: 0
- co-IP/MS count, N-term IgG [23]: 2
- co-IP/MS count, N-term IgG [24]: 19
- co-IP/MS count, N-term IgG [25]: 0
- co-IP/MS count, N-term IgG [26]: 5
- co-IP/MS count, N-term IgG [27]: 3
- co-IP/MS count, N-term IgG [28]: 0
- co-IP/MS count, N-term IgG [29]: 11
- co-IP/MS count, N-term IgG [30]: 11
- co-IP/MS count, N-term IgG [31]: 0
- co-IP/MS count, N-term IgG [32]: 8
- co-IP/MS count, N-term IgG [33]: 0
- co-IP/MS count, N-term IgG [34]: 0
- co-IP/MS count, N-term IgG [35]: 0
- co-IP/MS count, N-term IgG [36]: 2
- co-IP/MS count, N-term IgG [37]: 0
- co-IP/MS count, N-term IgG [38]: 9
